Test results published in patent US7790682B1, “Engineered human acidic fibroblast growth factors and associated methods” (The Florida State University Research Foundation, Inc., priority 2003, dated 2010).
“Also recorded” adds a separate entry of the source. Values belong to the molecule of their own block, whether it stands above or below them.

Assays:
[1] = Isothermal equilibrium denaturation in guanidine HCl monitored by CD; format: physicochemical; conditions: relative to SYM6ΔΔ
Protocol: Protein samples were equilibrated overnight in 20 mM N-2-(acetamido)iminodiacetic acid (ADA), 100 mM NaCl pH 6.60 at 298K in 0.1M increments of guanidine HCl (GuHCl). All samples contained a final protein concentration of 25 μM. An Aviv model 202 circular dichroism spectrometer (Proterion Corp., Piscataway, N.J.) equipped with a Peltier controlled temperature unit maintaining a constant temperature of 298K was used for all spectroscopic measurements. For each sample, triplicate scans were collected and averaged. Buffer traces were collected, averaged and subtracted from the sample traces. Data smoothing was performed prior to buffer subtraction using a 5-point Fourier transform filter. The denaturation process was monitored by observing the change in CD signal at 227 nm with increasing GuHCl, according to published references. The general purpose non-linear least squares fitting program DataFit™ (Oakdale Engineering, Oakdale Pa.) was used to fit the change in molar ellipticity at 227 nm versus GuHCl concentration to a six parameter two state model: F=(F0N+SN[D]+F0D+SD[D])e^−((ΔG0+m[D]/RT)/1+e^−((ΔG0+m[D]/RT) (1) where [D] is the denaturant concentration, F0N and F0D are the 0M denaturant molar ellipticity intercepts for the native and denatured states, respectively, and SN and SD are the slopes of the native and denatured state baselines, respectively. ΔG0 and m describe the linear function of the unfolding free energy versus denaturant concentration at 298K. The effect of a given mutation upon the stability of the protein (ΔΔG) was calculated by taking the difference between the Cm values for WT* and mutant and multiplying by the average of the m values, as described by Pace and Scholtz (Measuring the conformational stability of a protein; in Protein Structure: A Practical Approach, Creighton, T. E., ed., pp. 299-321, Oxford University Press, Oxford; 1997): ΔΔG=(CmWT*−Cm mutant)(mWT*+mmutant)/2 (2) Folding Kinetics Measurements.
Previous studies by others of the stability and folding of FGF-1 have been performed by monitoring the fluorescence signal of the single buried Trp 107 in FGF-1. This Trp in the WT* structure is somewhat unusual in that it is more highly quenched in the native state than the denatured. […] We have previously compared the fluorescence and CD spectroscopic response of FGF-1 to denaturation by GuHCl and shown essentially indistinguishable results for both his-tagged and non-his-tagged forms. A tabulation of the mutant thermodynamic data from isothermal equilibrium denaturation, monitored by CD signal, is listed in Table II. The data in this table for the SYM6 mutant are from our previously published isothermal equilibrium denaturation study monitored by fluorescence.

[2] = Precipitation during purification or concentration; format: physicochemical
Protocol: All mutant proteins, with the exception of the SYM6 mutant were expressed at levels similar to the WT* protein (i.e. ˜30-100 mg/L). […] The His-tag provides the WT* and mutant FGF-1 proteins with nickel binding affinity, and FGF-1 naturally has a heparin binding site. These two affinity sites were employed in a purification scheme utilizing sequential nickel-NTA and heparin Sepharose® affinity chromatography resins. However, mutant forms of FGF-1 involving the Δ120-122 mutation lacked heparin-binding affinity. These mutants were, therefore, purified by the substitution of gel filtration chromatography for the heparin Sepharose® affinity chromatography. The extinction coefficients used for concentration determination were E280nm (0.1%, 1 cm)=1.26 for WT* and other mutations not involving deletions or the Leu44 ? […] Phe, and E280nm (0.1%, 1 cm)=1.31 for all deletion mutations (determined by dithionitrobenzoate titration of cysteine residues).
Due to the relatively weak differential CD signal of native and denatured FGF-1, the folding kinetics study required relatively high protein concentrations (>5 mg/ml). […] The SYM6Δ120-122 mutant is substantially destabilized relative to the WT* protein (see Table II) and presents a relatively short “folding arm” in the Chevron plot, for this reason there is greater uncertainty associated with the folding kinetics determined for this mutant. […]

[3] = monitored by fluorescence signal, cited from earlier work
[4] = tested on: NIH 3T3 fibroblasts; test: Cell proliferation (mitogenic activity) assay; format: cell-based; conditions: predicted from data on other Δ120-122 mutants
Protocol: NIH 3T3 fibroblasts were initially plated in Dulbecco's modified Eagle's medium (DMEM) (American Type Culture Collection, Manassas Va.) supplemented with 10% (v/v) newborn calf serum (NCS) (Sigma, St. Louis Mo.), 100 units of penicillin, 100 μg streptomycin, 0.25 μg Fungizone™ and 0.01 mg/ml gentamicin (Gibco, Carlsbad Calif.) (“serum-rich” medium) in T75 tissue culture flasks (Fisher, Pittsburgh Pa.). The cultures were incubated at 37° C. and all cell growth was performed with 5% CO2 supplementation. At approximately 80% cell confluence, the cells were washed with 5 ml cold 0.14M NaCl, 5.1 mM KCl, 0.7 mM Na2HPO4 and 24.8 mM Trizma® base, pH 7.4 (TBS) and subsequently treated with 5 ml of a 0.025% trypsin solution (Invitrogen Corp., Carlsbad Calif.). Cell synchronization was initiated by serum starvation in DMEM with 0.5% NCS, 100 units of penicillin, 100 μg streptomycin, 0.25 μg Fungizone™ and 0.01 mg/ml gentamicin (“starvation” medium). The cells were seeded in T25 tissue culture flasks (Fisher, Pittsburgh, Pa.) at a cell density of 3.0×10^4 cells/cm^2 (representing ˜20% confluence). Duplicate flasks were used for each protein concentration. Cultures were incubated for 48 hours at 37° C., the medium was then decanted and replaced with fresh medium supplemented with the appropriate concentration of FGF-1 polypeptide, and incubated for an additional 48 hours. After this incubation, the medium was decanted and the cells were washed with 1 ml cold TBS pH 7.4. 1 ml of 0.025% trypsin was then added to release the cells from the flask surface, and 2 ml of serum-rich medium were added to dilute and inhibit the trypsin. The cells were counted using a hemocytometer (Hausser Scientific Partnership, Horsham Pa.). Experiments were performed in quadruplicate and the cell densities were averaged. The relationship between the cell number and log concentration of added growth factor was fit to a sigmoidal function.
Mitogenic activity towards NIH 3T3 fibroblasts was determined for WT*, SYM5, SYM5Δ104-106, SYM5Δ120-122, and SYM6ΔΔ mutants. […] The NIH 3T3 fibroblast proliferative activity of WT* FGF-1 yielded an effective concentration for 50% maximal stimulation (EC50) of 60 ng/ml (FIG. 3).

[5] = Heparin Sepharose affinity chromatography / heparin-binding affinity; conditions: predicted from data on other Δ120-122 mutants
Source text: All studies herein disclosed utilized a synthetic gene for the 140 amino acid form of human FGF-1 with the addition of an amino-terminal six residue “His-tag” to facilitate purification using nickel nitrilotriacetic acid (Ni-NTA) affinity resin (QIAGEN, Valencia Calif.). The QuikChange® site-directed mutagenesis protocol (Stratagene, La Jolla Calif.) was used to introduce mutations, individually or in combination, using mutagenic oligonucleotides of 25 to 31 bases in length (Biomolecular Analysis Synthesis and Sequencing Laboratory, Florida State University). For deletions involving residues 104-106 and 120-122, mutagenic oligonucleotides were used to delete these positions as well as to simultaneously create point mutations Ala103 ? Gly and Arg119 ? Gly, respectively. […]
All mutant proteins, with the exception of the SYM6 mutant were expressed at levels similar to the WT* protein (i.e. ˜30-100 mg/L). […] Phe, and E280nm (0.1%, 1 cm)=1.31 for all deletion mutations (determined by dithionitrobenzoate titration of cysteine residues).
To quantify the reduced affinity for heparin (a polysulfonated polysaccharide) we determined the affinity for sucrose octasulfate, a structural mimic of a heparin dimer, by isothermal titration calorimetry. […]

B1: SYM6: FGF-1 core mutant Leu44→Phe/Met67→Ile/Leu73→Val/Val109→Leu/Leu111→Ile/Cys117→Val (protein, UniProt P05230 16-155, looked up, variant L44F M67I L73V V109L L111I C117V)
Fibroblast growth factor 1: FNLPPGNYKKPKLLYCSNGGHFLRILPDGTVDGTRDRSDQHIQFQLSAESVGEVYIKSTETGQYLAIDTDGLVYGSQTPNEECLFLERLEENHYNTYISKKHAEKNWFLGIKKNGSVKRGPRTHYGQKAILFLPLPVSSD
effect on stability of the two loop insertions [1]: +25.3 kJ/mol
precipitation / solubility (in words) [2]: tendency to precipitate during purification; also recorded: typically precipitated during concentration
Cm ([3]; previously reported): 0.54 ± 0.01 M
m-value ([3]; previously reported): 19.3 ± 1.9 kJ/mol M
ΔG0 ([3]; previously reported): 2.49 ± 0.19 kcal/mol
ΔΔG ([3]; relative to WT*, previously reported data): 2.44 kcal/mol

heparin binding affinity, predicted [5]: decreased heparin binding affinity
B2: WTΔ120-122: Wild type FGF-1 polypeptide with a deletion at positions 120-122, SEQ ID NO: 3 (protein)
chain: FNLPPGNYKKPKLLYCSNGGHFLRILPDGTVDGTRDRSDQHIQLQLSAESVGEVYIKSTETGQYLAMDTDGLLYGSQTPNEECLFLERLEENHYNTYISKKHAEKNWFVGLKKNGSCKGTHYGQKAILFLPLPVSSD
modifications: Human FGF-1 mutant WTD120-122
mitogenicity, predicted [4]: increased biological activity with regard to mitogenicity
